In data set [1] the test system is TALEN TN8 (FokI ELD-S/KKR-S) (Artificial). Put plainly: cell_activity. To be noted: pair with TN3; maximum in one DMD myoblast line (6.8% in the other); Surveyor; site preceded by 5'T.
Data set [2] concerns TALEN TN3 (FokI ELD-S/KKR-S) (Artificial). Nature of the data set: cell_activity. As to conditions: pair with TN8; maximum in one DMD myoblast line (6.8% in the other); Surveyor; site preceded by 5'T.

“CCTTAGTAACCACAGGT (double strand) [TN8 half-site]”: in data set [1], the activity (% alleles modified) was found to be 12.7. In data set [2], “AGCTCCTACTCAGACT (double strand) [TN3 half-site]” showed an activity (% alleles modified) of 12.7.

(Values after patent publication US20150079064.)
